Paper PMC6093708, “Ligand discrimination and gating in cyclic nucleotide-gated ion channels from apo and partial agonist-bound cryo-EM structures” (eLife, 2018)

What was measured:
SthK = biological target: T1, SthK (Winmispira thermophila, UniProt G0GA88); experiment: single-channel recording in horizontal lipid bilayer; assay type: biochemical; details: very poor partial agonist; 7 mM cGMP; +100 mV; KCl, pH 7.0
T1 construct: gene Spith_0644; C-terminally truncated SthK 1-420; 19 extra N-terminal vector residues kept; expressed in E. coli C41(DE3); homotetramer in POPG/MSP1E3 nanodiscs or liposomes
T1 sequence (G0GA88 entry or part of it): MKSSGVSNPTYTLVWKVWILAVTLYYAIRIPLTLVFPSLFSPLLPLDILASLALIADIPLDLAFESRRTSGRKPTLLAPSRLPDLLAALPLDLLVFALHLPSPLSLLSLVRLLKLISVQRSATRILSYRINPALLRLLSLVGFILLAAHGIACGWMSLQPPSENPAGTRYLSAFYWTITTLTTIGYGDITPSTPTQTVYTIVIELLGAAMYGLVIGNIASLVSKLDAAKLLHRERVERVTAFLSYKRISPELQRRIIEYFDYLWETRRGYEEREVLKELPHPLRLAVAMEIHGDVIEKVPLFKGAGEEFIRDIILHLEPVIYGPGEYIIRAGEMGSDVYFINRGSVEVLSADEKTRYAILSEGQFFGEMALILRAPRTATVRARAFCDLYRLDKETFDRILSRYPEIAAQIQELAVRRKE

[1] = biological target: SthK 1-420, cyclic nucleotide-gated potassium channel from Spirochaeta thermophila (Spirochaeta thermophila); experiment: cryo-EM structure; SthK in POPG/MSP1E3 lipid nanodiscs; apo, with 2 mM cAMP or with 7 mM cGMP; 20 mM HEPES pH 8.0, 100 mM KCl; refined with C4 symmetry and without symmetry (C1)
[2] = biological target: SthK 1-420, cyclic nucleotide-gated potassium channel from Spirochaeta thermophila (Spirochaeta thermophila); experiment: negative stain electron microscopy; SthK in lipid nanodiscs (20 ug/mL), uranyl acetate stain, 2D classification

Po (SthK) | stoichiometry N [1] | stoichiometry N [2] | Molecule
~ 0.003 | – | – | Nc1nc2c(ncn2[C@@H]2O[C@@H]3COP(=O)(O)O[C@H]3[C@H]2O)c(=O)[nH]1 [cGMP]
– | 4 | 4 | SthK 1-420, cyclic nucleotide-gated potassium channel from Spirochaeta thermophila (natural protein)
